According to IntAct's records for PubMed 25533949:

B1: Tyrosine--tRNA ligase, cytoplasmic (Homo sapiens), P54577 (parent)
chain: MGDAPSPEEKLHLITRNLQEVLGEEKLKEILKERELKIYWGTATTGKPHVAYFVPMSKIADFLKAGCEVTILFADLHAYLDNMKAPWELLELRVSYYENVIKAMLESIGVPLEKLKFIKGTDYQLSKEYTLDVYRLSSVVTQHDSKKAGAEVVKQVEHPLLSGLLYPGLQALDEEYLKVDAQFGGIDQRKIFTFAEKYLPALGYSKRVHLMNPMVPGLTGSKMSSSEEESKIDLLDRKEDVKKKLKKAFCEPGNVENNGVLSFIKHVLFPLKSEFVILRDEKWGGNKTYTAYVDLEKDFAAEVVHPGDLKNSVEVALNKLLDPIREKFNTPALKKLASAAYPDPSKQKPMAKGPAKNSEPEEVIPSRLDIRVGKIITVEKHPDADSLYVEKIDVGEAEPRTVVSGLVQFVPKEELQDRLVVVLCNLKPQKMRGVESQGMLLCASIEGINRQVEPLDPPAGSAPGEHVFVKGYEKGQPDEELKPKKKVFEKLQADFKISEECIAQWKQTNFMTKLGSISCKSLKGGNIS

Variants of: B1
Conditions: with parp1_human PARP1, P09874
Chain of parp1_human PARP1, P09874 (P09874 whole entry): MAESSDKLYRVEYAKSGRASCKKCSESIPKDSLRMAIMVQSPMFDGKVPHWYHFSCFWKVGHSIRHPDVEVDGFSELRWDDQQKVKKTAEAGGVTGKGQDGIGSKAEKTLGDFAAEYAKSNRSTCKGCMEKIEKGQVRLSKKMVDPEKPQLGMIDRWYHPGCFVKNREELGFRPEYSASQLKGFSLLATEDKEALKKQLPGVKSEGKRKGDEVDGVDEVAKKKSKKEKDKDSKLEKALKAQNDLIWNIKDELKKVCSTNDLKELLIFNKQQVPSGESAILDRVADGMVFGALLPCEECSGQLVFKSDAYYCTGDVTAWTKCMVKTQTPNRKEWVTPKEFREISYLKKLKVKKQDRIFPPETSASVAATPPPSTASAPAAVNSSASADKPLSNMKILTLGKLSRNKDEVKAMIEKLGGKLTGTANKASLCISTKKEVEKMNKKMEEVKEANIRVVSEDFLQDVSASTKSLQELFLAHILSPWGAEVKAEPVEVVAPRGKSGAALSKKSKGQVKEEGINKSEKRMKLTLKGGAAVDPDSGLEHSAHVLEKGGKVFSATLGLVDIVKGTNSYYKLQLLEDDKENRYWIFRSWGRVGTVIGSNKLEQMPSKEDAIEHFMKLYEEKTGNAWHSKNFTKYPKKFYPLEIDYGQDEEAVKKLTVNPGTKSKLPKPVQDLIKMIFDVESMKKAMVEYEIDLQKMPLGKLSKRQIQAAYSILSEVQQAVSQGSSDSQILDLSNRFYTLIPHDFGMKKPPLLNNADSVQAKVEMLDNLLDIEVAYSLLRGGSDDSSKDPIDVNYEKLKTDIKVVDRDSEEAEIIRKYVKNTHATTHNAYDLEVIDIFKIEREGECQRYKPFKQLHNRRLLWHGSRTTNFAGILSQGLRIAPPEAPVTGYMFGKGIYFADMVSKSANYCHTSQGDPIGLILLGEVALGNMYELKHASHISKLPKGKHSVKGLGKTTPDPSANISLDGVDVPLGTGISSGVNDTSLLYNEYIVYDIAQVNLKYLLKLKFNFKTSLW

| effect of a mutation on the interaction | Variant |
| --- | --- |
| increasing interaction strength | MGDAPSPEEKLHLITRNLQEVLGEEKLKEILKERELKIYWGTATTGKPHVAYFVPMSKIADFLKAGCEVTILFADLHAYLDNMKAPWELLELRVSYYENVIKAMLESIGVPLEKLKFIKGTDYQLSKEYTLDVYRLSSVVTQHDSKKAGAEVVKQVEHPLLSGLLYPGLQALDEEYLKVDAQFGGIDQRKIFTFAEKYLPALGYSKRVHLMNPMVPGLTGSKMSSSEEESKIDLLDRKEDVKKKLKKAFCEPGNVENNGVLSFIKHVLFPLKSEFVILRDEKWGGNKTYTAYVDLEKDFAAEVVHPGDLKNSVEVALNKLLDPIREKFNTPALKKLASAAAPDPSKQKPMAKGPAKNSEPEEVIPSRLDIRVGKIITVEKHPDADSLYVEKIDVGEAEPRTVVSGLVQFVPKEELQDRLVVVLCNLKPQKMRGVESQGMLLCASIEGINRQVEPLDPPAGSAPGEHVFVKGYEKGQPDEELKPKKKVFEKLQADFKISEECIAQWKQTNFMTKLGSISCKSLKGGNIS [Y341A] |
